The labels stand for the following.
B2: complement factor H, double homozygous His-402/Val-62 allotype (natural protein)
chain: EDCNELPPRRNTEILTGSWSDQTYPEGTQAIYKCRPGYRSLGNVIMVCRKGEWVALNPLRKCQKRPCGHPGDTPFGTFTLTGGNVFEYGVKAVYTCNEGYQLLGEINYRECDTDGWTNDIPICEVVKCLPVTAPENGKIVSSAMEPDREYHFGQAVRFVCNSGYKIEGDEEMHCSDDGFWSKEKPKCVEISCKSPDVINGSPISQKIIYKENERFQYKCNMGYEYSERGDAVCTESGWRPLPSCEEKSCDNPYIPNGDYSPLRIKHRTGDEITYQCRNGFYPATRGNTAKCTSTGWIPAPRCTLKPCDYPDIKHGGLYHENMRRPYFPVAVGKYYSYYCDEHFETPSGSYWDHIHCTQDGWSPAVPCLRKCYFPYLENGYNQNHGRKFVQGKSIDVACHPGYALPKAQTTVTCMENGWSPTPRCIRVKTCSKSSIDIENGFISESQYTYALKEKAKYQCKLGYVTADGETSGSITCGKDGWSAQPTCIKSCDIPVFMNARTKNDFTWFKLNDTLDYECHDGYESNTGSTTGSIVCGYNGWSDLPICYERECELPKIDVHLVPDRKKDQYKVGEVLKFSCKPGFTIVGPNSVQCYHFGLSPDLPICKEQVQSCGPPPELLNGNVKEKTKEEYGHSEVVEYYCNPRFLMKGPNKIQCVDGEWTTLPVCIVEESTCGDIPELEHGWAQLSSPPYYYGDSVEFNCSESFTMIGHRSITCIHGVWTQLPQCVAIDKLKKCKSSNLIILEEHLKNKKEFDHNSNIRYRCRGKEGWIHTVCINGRWDPEVNCSMAQIQLCPPPPQIPNSHNMTTTLNYRDGEKVSVLCQENYLIQEGEEITCKDGRWQSIPLCVEKIPCSQPPQIEHGTINSSRSSQESYAHGTKLSYTCEGGFRISEENETTCYMGKWSSPPQCEGLPCKSPPEISHGVVAHMSDSYQYGEEVTYKCFEGFGIDGPAIAKCLGEKWSHPPSCIKTDCLSLPSFENAIPMGEKKDVYKAGEQVTYTCATYYKMDGASNVTCINSRWTGRPTCRDTSCVNPPTVQNAYIVSRQMSKYPSGERVRYQCRSPYEMFGDEEVMCLNGNWTEPPQCKDSTGKCGPPPPIDNGDITSFPLSVYAPASSVEYQCQNLYQLEGNKRITCRNGQWSEPPKCLHPCVISREIMENYNIALRWTAKQKLYSRTGESVEFVCKRGYRLSSRSHTLRTTCWDGKLEYPTCAKR
modifications: eight biantennary disialylated N-glycans; sites as printed: Asn-511, Asn-700, Asn-784, Asn-804, Asn-864, Asn-892, Asn-1011, Asn-1077

Bounds are passed on as bounds.

Data set [1] addresses B2. The experiment in a line: SPR. In general terms: Surface plasmon resonance follows binding to a sensor surface in real time, without labels.
The data set “SPR” concerns the molecule itself. The experiment in a line: SPR.

For orientation: Kd means the equilibrium constant for the complex coming apart. A lower Kd goes with tighter binding.

B1: complement factor H, homozygous Tyr-402/Val-62 allotype (natural protein)
chain: EDCNELPPRRNTEILTGSWSDQTYPEGTQAIYKCRPGYRSLGNVIMVCRKGEWVALNPLRKCQKRPCGHPGDTPFGTFTLTGGNVFEYGVKAVYTCNEGYQLLGEINYRECDTDGWTNDIPICEVVKCLPVTAPENGKIVSSAMEPDREYHFGQAVRFVCNSGYKIEGDEEMHCSDDGFWSKEKPKCVEISCKSPDVINGSPISQKIIYKENERFQYKCNMGYEYSERGDAVCTESGWRPLPSCEEKSCDNPYIPNGDYSPLRIKHRTGDEITYQCRNGFYPATRGNTAKCTSTGWIPAPRCTLKPCDYPDIKHGGLYHENMRRPYFPVAVGKYYSYYCDEHFETPSGSYWDHIHCTQDGWSPAVPCLRKCYFPYLENGYNQNYGRKFVQGKSIDVACHPGYALPKAQTTVTCMENGWSPTPRCIRVKTCSKSSIDIENGFISESQYTYALKEKAKYQCKLGYVTADGETSGSITCGKDGWSAQPTCIKSCDIPVFMNARTKNDFTWFKLNDTLDYECHDGYESNTGSTTGSIVCGYNGWSDLPICYERECELPKIDVHLVPDRKKDQYKVGEVLKFSCKPGFTIVGPNSVQCYHFGLSPDLPICKEQVQSCGPPPELLNGNVKEKTKEEYGHSEVVEYYCNPRFLMKGPNKIQCVDGEWTTLPVCIVEESTCGDIPELEHGWAQLSSPPYYYGDSVEFNCSESFTMIGHRSITCIHGVWTQLPQCVAIDKLKKCKSSNLIILEEHLKNKKEFDHNSNIRYRCRGKEGWIHTVCINGRWDPEVNCSMAQIQLCPPPPQIPNSHNMTTTLNYRDGEKVSVLCQENYLIQEGEEITCKDGRWQSIPLCVEKIPCSQPPQIEHGTINSSRSSQESYAHGTKLSYTCEGGFRISEENETTCYMGKWSSPPQCEGLPCKSPPEISHGVVAHMSDSYQYGEEVTYKCFEGFGIDGPAIAKCLGEKWSHPPSCIKTDCLSLPSFENAIPMGEKKDVYKAGEQVTYTCATYYKMDGASNVTCINSRWTGRPTCRDTSCVNPPTVQNAYIVSRQMSKYPSGERVRYQCRSPYEMFGDEEVMCLNGNWTEPPQCKDSTGKCGPPPPIDNGDITSFPLSVYAPASSVEYQCQNLYQLEGNKRITCRNGQWSEPPKCLHPCVISREIMENYNIALRWTAKQKLYSRTGESVEFVCKRGYRLSSRSHTLRTTCWDGKLEYPTCAKR
modifications: eight biantennary disialylated N-glycans; sites as printed: Asn-511, Asn-700, Asn-784, Asn-804, Asn-864, Asn-892, Asn-1011, Asn-1077
On to B1, for which, in data set [1], the Kd was over 40 µM.

Molecule B2 displayed a Kd in “SPR” of over 40 µM.
